# Legend:
# [1] = target: T1, human TIM-3 extracellular domain-human IgG1 Fc fusion protein (human, UniProt Q8TDQ0 22-199); experiment: ELISA; 15 mg/mL in preparation buffer (20 mM His pH 6.0), 37°C 0 day (-80°C)
# T1 construct: Made in house or bought (ACROBiosystems TM3-H5258); also called TIM-3-hFc; not shown: human IgG1 Fc
# [2] = target: T2, human PD-1 extracellular domain protein expressed in Example 1 (tag not stated) (human, UniProt Q15116 25-170); experiment: as above
# T2 construct: extracellular domain; also called PD-1 protein; not shown: human IgG1 Fc or his tag
# [3] = target: T1, human TIM-3 extracellular domain-human …; experiment: ELISA; pH 5.5, 40°C 0 day (-80°C)
# [4] = target: T2, human PD-1 extracellular domain protein …; experiment: ELISA; pH 5.5, 40°C 0 day (-80°C)
# [5] = target: T3, human TIM-3 extracellular domain-his tag protein (human, UniProt Q8TDQ0 22-199); experiment: SPR Biacore, antibody captured on Protein A, antigen in flow
# T3 construct: Made in house or bought (ACROBiosystems TM3-H5229); also called TIM-3-his; Human Tim3-his; not shown: his tag
# Procedure: (§1) First, Protein A (Thermo Pierce, Cat #21181) was conjugated to the biosensing chip CMS (Cat. #BR-1005-30, GE), and the chip was activated with the newly prepared 50 mM NHS (N-hydroxysuccinimide) and 200 mM EDC [1-ethyl-3-(3-dimethylaminopropyl) carbodiimide hydrochloride], then 10 μg/ml Protein A prepared with 10 mM NaAC (pH 4.0) was injected. […] The flow rate was 30 μl/min, the binding time was 180 seconds and the dissociation time is 300 seconds. Subsequently, the chip was washed for 30s with 10 mM Glycine-HCl (pH 1.5) at 30 μl/min. The data were fitted with a 1:1 Langmuir model using the software of Biacore T200 evaluation version 3.0 (GE), and the affinity value KD was obtained.
# Human PD-1-his = target: T4, Human PD-1-his (human, UniProt Q15116 25-170); experiment: as above
# T4 construct: extracellular domain; not shown: his tag
# Procedure: as §1
# [6] = target: T1, human TIM-3 extracellular domain-human …; experiment: ELISA; preparation buffer, 37°C 14 days, against 0 day
# [7] = target: T2, human PD-1 extracellular domain protein …; experiment: as above
# [8] = target: T2, human PD-1 extracellular domain protein …; experiment: double-sandwich ELISA: PD-1 coated, LB141 titrated, detected with Bio-TIM-3-his and streptavidin-HRP
# Procedure: After discarding the liquid, 200 μl/well of blocking solution of 5% skimmed milk (Sangon Biotech (Shanghai) Co., Ltd., A600669-0250) diluted with PBS was added, and the microplate was placed at 4° C. overnight (16-18 hours) for blocking. After discarding the blocking solution, the microplate was washed 5 times with PBST buffer (pH 7.4 PBS containing 0.05% tween-20). […] Followed by washing the plate 5 times with PBST, 50 μl/well of 1 μg/ml Bio-TIM-3-his (ACROBiosystems, TM-H5229) was added and incubated at 37° C. for 1 hour. Then the microplate was washed 5 times with PBST again, and 50 μl/well 1:1000 diluted streptavidin-HRP secondary antibody (Nanjing Genscript Biotech Corporation, M00091) was added and incubated at 37° C. for 1 hour. After washing the microplate 5 times with PBST, 50 μDwell TMB chromogenic substrate (KPL, 52-00-03) was added and incubated at room temperature for 5-10 min.
# [9] = target: T5, TIM-3-hFc (Acro biosystems, 22-142) (human, UniProt Q8TDQ0 22-142); experiment: double-sandwich ELISA: TIM-3-hFc coated, LB141 titrated, detected with PD-1-his and anti-his-HRP
# T5 construct: Bought; not shown: human Fc (hFc)
# [10] = target: T2, human PD-1 extracellular domain protein …; experiment: blocking ELISA, PD-1 coated, competitor biotin-labeled PD-L1
# [11] = target: T1, human TIM-3 extracellular domain-human …; experiment: ELISA; 15 mg/mL in PBS, 37°C 0 day (-80°C)
# [12] = target: T2, human PD-1 extracellular domain protein …; experiment: ELISA; 15 mg/mL in PBS, 37°C 0 day (-80°C)
# [13] = target: T1, human TIM-3 extracellular domain-human …; experiment: ELISA
# Procedure: Goat-anti-hFc (Jackson, 109-005-008) was diluted to a concentration of 1 μg/ml with PBS buffer (pH 7.4) and added to a 96-well microplate (Corning, CLS3590-100EA) at a volume of 50 μl/well, then incubated in an incubator at 37° C. for 2 hours (Or the antigen TIM-3 was directly used to coat the microplate with a concentration of 0.5 μg/ml, and then the antibody to be tested was directly added). After discarding the liquid, a blocking solution of 5% skimmed milk (skimmed milk powder purchased from Bright) diluted with PBS was added at 200 μl per well, and the microplate was incubated for 2.5 hours at 37° C. or overnight (16-18 hours) at 4° C. for blocking. The blocking solution was discarded, and the microplate was washed 5 times with PBST buffer (PBS with pH 7.4 containing 0.05% tween-20), then 50 μl/well of 0.5 μg/ml TIM-3-hFc (Example 1) was added and incubated for 2 hours in a 37° C. incubator. After incubation, the microplate was washed 6 times with PB ST. 50 μl/well of supernatant (containing testing antibody) or different concentrations of the antibody to be tested was added, and the microplate was incubated at 37° C. for 2 hours and washed 5 times with PBST. 50 μl/well of 1:2500 diluted HRP-labeled secondary antibody (Jackson Immuno Research, 115-035-003) was added to the microplate, incubating at 37° C. for 1 hour. After washing the microplate 5 times with PBST, 50 μl/well TMB chromogenic substrate (KPL, 52-00-03) was added to the microplate, followed by incubating at room temperature for 10-15 min.
# [14] = target: T1, human TIM-3 extracellular domain-human …; experiment: ELISA; pH 5.5, 37°C 10 days
# [15] = target: T2, human PD-1 extracellular domain protein …; experiment: ELISA; pH 5.5, 37°C 10 days
binder,measurement,setting,value
"bispecific antibody LB141 (bispecific antibody, human IgG4 S228P, kappa, ab6VL-(G4S)3-ab6VH-(G4S)3-PemVH-hIgG4 with PemVL-κ) light: EIVLTQSPATLSLSPGERATLSCRASKGVSTSGYSYLHWYQQKPGQAPRLLIYLASYLESGVPARFSGSGSGTDFTLTISSLEPEDFAVYYCQHSRDLPLTFGGGTKVEIKRTVAAPSVFIFPPSDEQLKSGTASVVCLLNNFYPREAKVQWKVDNALQSGNSQESVTEQDSKDSTYSLSSTLTLSKADYEKHKVYACEVTHQGLSSPVTKSFNRGEC heavy: not shown",EC50,[1],0.303 nM
same,EC50,[2],0.378 nM
same,EC50,[3],0.36 nM
same,EC50,[4],0.181 nM
same,Kd,[5],5.05 nM
same,koff,[5],0.00393 s⁻¹
same,kon,[5],777000 M⁻¹ s⁻¹
same,Kd,Human PD-1-his,6.63 nM
same,koff,Human PD-1-his,0.00285 s⁻¹
same,kon,Human PD-1-his,430000 M⁻¹ s⁻¹
same,Fold change of EC50,[6],47.9 ratio
same,Fold change of EC50,[7],1.18 ratio
same,EC50,[8],0.816 nM
same,EC50,[9],0.931 nM
same,IC50,[10],1.66 nM
same,EC50,[11],0.253 nM
same,EC50,[12],0.293 nM
same,EC50,[13],0.648 nM
same,EC50,[14],0.307 nM
same,EC50,[15],0.199 nM

# Source: patent US20210269521A1 (L AND L BIOPHARMA, published 2021)
